Data on 20 molecules can be found in patent publication US20250277029A1 (Amgen, published 2025).

To fix the notation:
B1: LIBC523844-1 (antibody, V domains shown)
VH: QVQLQESGPGLVKPSQTLSLTCTVSGGSIRRGGDYWSWIRQHPGKGLEWIGHVYYTGSTKYNPSFKDRATISVNTYKNQFSLKLSSVTAADTAVYYCARDYDILTGYSYYYYGMDVWGQGTTVTVSS
VL: DIVMTQSPLSLPVTPGEPASISCRSSQSLLSSSGANYVDWYLQKPGQSPQLLIYQGSNRASGVPDRFSGSGSGTDFTLKISRVEAEDVGVYYCRQARALPRTFGQGTKVEIKR
B2: LIBC523596-1 (antibody, V domains shown)
VH: QVQLQESGPGLVKPSQTLSLTCTVSGGSIRRGGDYWSWIRQHPGKGLEWIGHVYQSGQTAYNPNFEDRATISVNTYKNQFSLKLSSVTAADTAVYYCAREYDVVSGYSYYYYGMDVWGQGTTVTVSS
VL: DIVMTQSPLSLPVTPGEPASISCRSSQSLLTSSGYNYVDWYLQKPGQSPQLLIYQGSNRASGVPDRFSGSGSGTDFTLKISRVEAEDVGVYYCMQAVKIPRTFGQGTKVEIKR
B3: LIBC680562-1 (IgG1 SEFL2 mAb) (antibody, V domains shown)
VH: QVQLQESGPGLVKPSQTLSLTCTVSGGSIRRGGDYWAWIRQHPGKGLEWIGHIYQTGSTNYNPRFKGRATISVNTYKNQFSLKLSSVTAADTAVYYCARNYDTLTGYSYYYYGMDVWGQGTTVTVSS
VL: DIQMTQSPSSLSASVGDRVTITCRASQSISSYLNWYQQKPGKAPKLLIYSARRLSSGVPSRFSGSGSGTDFTLTISSLQPEDFATYYCQQYAKSPITFGGGTKVEIKR
B4: LIBC680812-1 (IgG1 SEFL2 mAb) (antibody, V domains shown)
VH: QVQLQESGPGLVKPSQTLSLTCTVSGGSIRRGGDYWGWIRQHPGKGLEWIGHVYQTGSTKYNPSFKDRATISVNTYKNQFSLKLSSVTAADTAVYYCARNYDTLTGYSYYYYGMDVWGQGTTVTVSS
VL: DIQMTQSPSSLSASVGDRVTITCRASQSISSYLNWYQQKPGKAPKLLIYSARRLSSGVPSRFSGSGSGTDFTLTISSLQPEDFATYYCQQYRSYPITFGGGTKVEIKR
B5: LIBC681593-1 (IgG1 SEFL2 mAb) (antibody, V domains shown)
VH: QVQLQESGPGLVKPSQTLSLTCTVSGGSIRRGGDYWAWIRQHPGKGLEWIGHIYQTGSTNYNPRFKGRATISVNTYKNQFSLKLSSVTAADTAVYYCARNYDTLTGYSYYYYGMDVWGQGTTVTVSS
VL: DIQMTQSPSSLSASVGDRVTITCRASQSISSYLNWYQQKPGKAPKLLIYNARRLGSGVPSRFSGSGSGTDFTLTISSLQPEDFATYYCQQYRSSPVTFGGGTKVEIKR
B6: LIBC680800-1 (IgG1 SEFL2 mAb) (antibody, V domains shown)
VH: QVQLQESGPGLVKPSQTLSLTCTVSGGSIRRGGDYWAWIRQHPGKGLEWIGHIYQTGSTNYNPRFKGRATISVNTYKNQFSLKLSSVTAADTAVYYCARNYDTLTGYSYYYYGMDVWGQGTTVTVSS
VL: DIQMTQSPSSLSASVGDRVTITCRASQSISSYLNWYQQKPGKAPKLLIYSARALSSGVPSRFSGSGSGTDFTLTISSLQPEDFATYYCQQYRKFPLTFGGGTKVEIKR
B7: LIBC680773-1 (IgG1 SEFL2 mAb) (antibody, V domains shown)
VH: QVQLQESGPGLVKPSQTLSLTCTVSGGSIRRGGDYWAWIRQHPGKGLEWIGHVYYTGSTNYNPRFKDRATISVNTYKNQFSLKLSSVTAADTAVYYCARNYDTVTGYSYYYYGMDVWGQGTTVTVSS
VL: DIQMTQSPSSLSASVGDRVTITCRASQSISSYLNWYQQKPGKAPKLLIYKARLLSSGVPSRFSGSGSGTDFTLTISSLQPEDFATYYCQQYSRLPLTFGGGTKVEIKR
B8: LIBC681594-1 (IgG1 SEFL2 mAb) (antibody, V domains shown)
VH: QVQLQESGPGLVKPSQTLSLTCTVSGGSIRRGGDYWAWIRQHPGKGLEWIGHIYQTGSTNYNPRFKGRATISVNTYKNQFSLKLSSVTAADTAVYYCARNYDTLTGYSYYYYGMDVWGQGTTVTVSS
VL: DIQMTQSPSSLSASVGDRVTITCRASQSISSYLNWYQQKPGKAPKLLIYKARKLSSGVPSRFSGSGSGTDFTLTISSLQPEDFATYYCQQFGSMPLTFGGGTKVEIKR
B9: LIBC680574-1 (IgG1 SEFL2 mAb) (antibody, V domains shown)
VH: QVQLQESGPGLVKPSQTLSLTCTVSGGSIRRGGDYWAWIRQHPGKGLEWIGHVYYTGSTKYNPSFKDRATISVNTYKNQFSLKLSSVTAADTAVYYCARNYDTLTGYSYYYYGMDVWGQGTTVTVSS
VL: DIQMTQSPSSLSASVGDRVTITCRASQSISSYLNWYQQKPGKAPKLLIYGARRLGSGVPSRFSGSGSGTDFTLTISSLQPEDFATYYCQQYSSLPVTFGGGTKVEIKR
B10: LIBC528116-1 + VK1 germline fix(es) (IgG1 SEFL2 mAb) (antibody, V domains shown)
VH: QVQLQESGPGLVKPSQTLSLTCTVSGGSIRRGGDYWAWIRQHPGKGLEWIGHVYYTGSTNYNPRFKDRATISVNTYKNQFSLKLSSVTAADTAVYYCARNYDTVTGYSYYYYGMDVWGQGTTVTVSS
VL: DIQLTQSPSTLSASVGDRVTITCRASQSISNYLNWYQQKPGKAPKLLIYAASSLHSGVPSRFSGSGSGTDFTLTISSLQPEDFASYYCQQYQSYPLTFGQGTKVEIKR
B11: LIBC681737-1(LC:P12S) (IgG1 SEFL2 mAb) (antibody, V domains shown)
VH: QVQLQESGPGLVKPSQTLSLTCTVSGGSIRRGGDYWAWIRQHPGKGLEWIGHVYYTGSTNYNPRFKDRATISVNTYKNQFSLKLSSVTAADTAVYYCARNYDTVTGYSYYYYGMDVWGQGTTVTVSS
VL: DIQMTQSPSSLSASVGDRVTITCRASQSISSYLNWYQQKPGKAPKLLIYSARRLASGVPSRFSGSGSGTDFTLTISSLQPEDFATYYCQQYYHPPITFGGGTKVEIKR
B12: LIBC673965-1 (IgG1 SEFL2 mAb) (antibody, V domains shown)
VH: QVQLQESGPGLVKPSQTLSLTCTVSGGSIRRGGDYWSWIRQHPGKGLEWIGHVYYTGQTAYNPSLRGRVRISVNTYKNQFSLKLSSVTAADTAVYYCARGYDTSGYSYYYYGLDVWGQGTTVTVSS
VL: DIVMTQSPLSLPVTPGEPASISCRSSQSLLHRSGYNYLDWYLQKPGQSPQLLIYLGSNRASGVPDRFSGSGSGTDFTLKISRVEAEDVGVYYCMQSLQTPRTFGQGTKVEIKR
B13: LIBC673972-1 (IgG1 SEFL2 mAb) (antibody, V domains shown)
VH: QVQLQESGPGLVKPSQTLSLTCTVSGGSIRRGGDYWSWIRQHPGKGLEWIGHIYYTGQTAYNPNLRNRVRISVNTYKNQFSLKLSSVTAADTAVYYCARGYDASGYSYYYYGLDVWGQGTTVTVSS
VL: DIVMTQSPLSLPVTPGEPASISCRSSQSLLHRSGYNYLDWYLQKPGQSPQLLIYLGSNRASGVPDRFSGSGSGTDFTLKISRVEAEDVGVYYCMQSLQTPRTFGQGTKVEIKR
B14: LIBC673982-1 (IgG1 SEFL2 mAb) (antibody, V domains shown)
VH: QVQLQESGPGLVKPSQTLSLTCTVSGGSIRRGGDYWSWIRQHPGKGLEWIGHIYYTGSTTYNPSFRGRVRISVNTYKNQFSLKLSSVTAADTAVYYCARDYDISGYSYYYYGMDVWGQGTTVTVSS
VL: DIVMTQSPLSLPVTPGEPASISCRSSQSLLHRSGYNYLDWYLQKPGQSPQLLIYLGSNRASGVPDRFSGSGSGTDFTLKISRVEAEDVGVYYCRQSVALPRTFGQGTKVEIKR
B15: LIBC674229-1 (IgG1 SEFL2 mAb) (antibody, V domains shown)
VH: QVQLQESGPGLVKPSQTLSLTCTVSGGSIRRGGDYWSWIRQHPGKGLEWIGHIYQTGQTKYNPSFKGRVRISVNTYKNQFSLKLSSVTAADTAVYYCARGYDVSGYSYYYYGMDVWGQGTTVTVSS
VL: DIVMTQSPLSLPVTPGEPASISCRSSQSLLHRSGYNYLDWYLQKPGQSPQLLIYQGSNRASGVPDRFSGSGSGTDFTLKISRVEAEDVGVYYCMQSLQTPRTFGQGTKVEIKR
B16: LIBC674200-1 (LC: G76D) (IgG1 SEFL2 mAb) (antibody, V domains shown)
VH: QVQLQESGPGLVKPSQTLSLTCTVSGGSIRRGGDYWSWIRQHPGKGLEWIGHVYYTGQTAYNPNFRNRVRISVNTYKNQFSLKLSSVTAADTAVYYCARGYDVSGYSYYYYGMDVWGQGTTVTVSS
VL: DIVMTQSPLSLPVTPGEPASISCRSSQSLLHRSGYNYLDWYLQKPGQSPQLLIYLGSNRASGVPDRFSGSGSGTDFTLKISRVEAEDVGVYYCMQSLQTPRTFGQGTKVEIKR
B17: LIBC674200-1 (IgG1 SEFL2 mAb) (antibody, V domains shown)
VH: QVQLQESGPGLVKPSQTLSLTCTVSGGSIRRGGDYWSWIRQHPGKGLEWIGHVYYTGQTAYNPNFRNRVRISVNTYKNQFSLKLSSVTAADTAVYYCARGYDVSGYSYYYYGMDVWGQGTTVTVSS
VL: DIVMTQSPLSLPVTPGEPASISCRSSQSLLHRSGYNYLDWYLQKPGQSPQLLIYLGSNRASGVPGRFSGSGSGTDFTLKISRVEAEDVGVYYCMQSLQTPRTFGQGTKVEIKR
B18: LIBC674090-1 (IgG1 SEFL2 mAb) (antibody, V domains shown)
VH: QVQLQESGPGLVKPSQTLSLTCTVSGGSIRRGGDYWSWIRQHPGKGLEWIGHIYYAGSTAYNPNFRGRVRISVNTYKNQFSLKLSSVTAADTAVYYCARGYDTSGYSYYYYGLDVWGQGTTVTVSS
VL: DIVMTQSPLSLPVTPGEPASISCRSSQSLLHRSGYNYLDWYLQKPGQSPQLLIYQGSNRASGVPDRFSGSGSGTDFTLKISRVEAEDVGVYYCMQSLQTPRTFGQGTKVEIKR
B19: 10D10 (antibody, V domains shown)
VH: QVQLQESGPGLVKPSQTLSLTCTVSGGSIRRGGDYWSWIRQHPGKGLEWIGYIYYSGSTNYNPSLKSRATISVDTSKNQFSLKLSSVTAADTAVYYCARDYDILTGYSYYYYGMDVWGQGTTVTVSS
VL: not shown
B20: LIBC528148-1 (antibody, V domains shown)
VH: QVQLQESGPGLVKPSQTLSLTCTVSGGSIRRGGDYWSWIRQHPGKGLEWIGHIYQSGQTKYNPKLKGRATISVDTYKNQFSLKLSSVTAADTAVYYCARDYDILTGYSYYYYGMDVWGQGTTVTVSS
VL: DIQLTQSPSTLSASVGDRVTITCRASQSISNYLNWYQQKPGKAPKLLIYAASSLHSGVPSRFSGSGSGTDFTLTISSLQPEDFASYYCQQYQSYPLTFGQGTKVEIKR

T1 sequence (P21554 99-414): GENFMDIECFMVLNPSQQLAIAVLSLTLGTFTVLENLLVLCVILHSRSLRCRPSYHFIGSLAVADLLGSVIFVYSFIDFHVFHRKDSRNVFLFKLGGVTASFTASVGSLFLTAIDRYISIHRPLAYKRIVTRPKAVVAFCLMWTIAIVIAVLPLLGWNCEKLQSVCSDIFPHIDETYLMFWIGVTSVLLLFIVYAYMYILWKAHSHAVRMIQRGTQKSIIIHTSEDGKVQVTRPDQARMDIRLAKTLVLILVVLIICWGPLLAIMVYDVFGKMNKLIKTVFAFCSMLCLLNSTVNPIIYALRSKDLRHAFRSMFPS

One experiment has as its target T1, His-tagged huCB1-ND (human CB1 in nanodisc) (human).
T1 construct: CB1 construct of Cell 167(3) (2016) 750-762 expressed in Sf9 cells; POPC:MSP1D1:CB1 480:8:1; also called CB1-nanodisc; huCB1-Nanodisc; not shown: histidine purification tag
In words: flow cytometry, yeast-displayed IgG, binding/display ratio. In general terms: In flow cytometry, cells or beads pass a laser one at a time.
As to B1, the “relative binding to 0.2 nM huCB1-ND (relative to 10D10N35Y)” value came to 3.78 fold.

For the next experiment, the target named is T2, GFP-fused huCB1-SMALP (human CB1 in styrene maleic acid lipoparticles) (human, UniProt P21554 1-472).
T2 construct: Prepared as in Luna V. et al. 2018; also called huCB1-GFP-SMALP; wtCB1-SMALP; not shown: GFP fusion
T2 sequence (P21554 whole entry, the tested form may be a part): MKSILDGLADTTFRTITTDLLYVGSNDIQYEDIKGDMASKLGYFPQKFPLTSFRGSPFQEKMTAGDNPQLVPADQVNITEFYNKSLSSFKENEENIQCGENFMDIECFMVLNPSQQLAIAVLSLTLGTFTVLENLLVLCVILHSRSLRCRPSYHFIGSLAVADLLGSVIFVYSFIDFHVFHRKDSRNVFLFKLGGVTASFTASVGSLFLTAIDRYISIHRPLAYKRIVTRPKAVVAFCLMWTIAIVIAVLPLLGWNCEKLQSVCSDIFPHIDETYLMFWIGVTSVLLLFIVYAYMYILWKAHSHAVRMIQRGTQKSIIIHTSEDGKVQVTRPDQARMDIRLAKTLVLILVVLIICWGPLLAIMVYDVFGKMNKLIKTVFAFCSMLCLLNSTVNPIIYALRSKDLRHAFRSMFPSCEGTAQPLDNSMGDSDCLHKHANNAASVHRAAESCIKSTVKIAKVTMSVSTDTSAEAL
The experiment is described as follows: flow cytometry, yeast-displayed IgG, GFP MFI.
In the case of B1, the “100 nM huCB1-SMALP binding (normalized to 10D10)” value is 6.69 fold. As to B2, the “100 nM huCB1-SMALP binding (normalized to 10D10)” value stood at 4.19 fold.

In another experiment the target is human CB1 on stably transfected CB1 CHO cells (human, UniProt P21554 1-472). In words: cell-based or functional assay.
Sequence of human CB1 on stably transfected CB1 CHO cells (P21554 whole entry): as the sequence (P21554 whole entry, the tested form may be a part) above
Turning to B3, the “IC50 (nM, n = 4), antagonist activity, TR-FRET cAMP assay” value (from here on “IC50 (nM, n = 4), antagonist activity”) amounted to 0.71 nM.

Regarding B4, the “IC50 (nM, n = 4), antagonist activity” value was 0.68 nM.

B5: the “IC50 (nM, n = 4), antagonist activity” value is 0.61 nM. As for B6, the “IC50 (nM, n = 4), antagonist activity” value is 1.57 nM. The same measure, in the same setting: the figure for B7 is 0.74 nM; for B8 it is 1.24 nM. The same measure, in the same setting: the figure for B9 is 0.75 nM; for B10 it is 2.02 nM; for B11 it is 0.55 nM. Same read-out and setting: the figure for B12 is 2.21 nM; for B13 it is 2.43 nM; for B14 it is 2.11 nM. For the molecule B15, the “IC50 (nM, n = 4), antagonist activity” value came to 4.16 nM. B16: the “IC50 (nM, n = 4), antagonist activity” value was 2.23 nM. With B17, the “IC50 (nM, n = 4), antagonist activity” value came to 2.39 nM. Regarding B18, the “IC50 (nM, n = 4), antagonist activity” value came to 1.76 nM. B19: the “IC50 (nM, n = 4), antagonist activity” value came to 347 nM.

The target of another experiment is T1, His-tagged huCB1-ND (human CB1 in …). In words: flow cytometry, yeast-displayed IgG, huCB1-ND over empty-ND.
Take B1: the “specific huCB1 binding (CB1 ND/Empty ND ratio)” value turned out to be 8.58 ratio.

The target of another experiment is T2, GFP-fused huCB1-SMALP (human CB1 in …). In words: flow cytometry, yeast-displayed IgG, GFP MFI. This is another data set of the same source.
As for B20, the “100 nM huCB1-GFP-SMALP binding (normalized to 10D10N35Y)” value is 3.38 fold.
